The Kd is the free concentration of one partner at which half of the binding sites on the other are occupied at equilibrium, for simple one-to-one binding. Usually IC50 stands for the point on the concentration scale where inhibition reaches its midpoint.

Drawing on the Immune Epitope Database (IEDB), this text covers Kd and IC50 for 33 sequences.

The target of assay [1] is HLA-A*31:01. Kind of assay: IEDB peptide-MHC binding, purified MHC/competitive/radioactivity; filed as Kd, often an IC50 or EC50 that approximates it; ≥ and ≤ were set here for values at or beyond the usual limits of such assays.
The target of the next assay is HLA-A*30:01. The description is as above.
The target in a further assay is HLA-A*01:01. The assay is described as above.
A further assay addresses HLA-A*32:01. The assay is described as above.
A further assay concerns the target HLA-A*29:02. Described as above.
A further assay concerns the target HLA-A*30:02. The assay is described as above.
The next assay deals with HLA-A*26:01. The description is as above.
Assay [2] deals with HLA-A*31:01. As to the kind of experiment: IEDB peptide-MHC binding, purified MHC/direct/fluorescence; filed as Kd, often an IC50 or EC50 that approximates it; ≥ and ≤ were set here for values at or beyond the usual limits of such assays.
The target in assay [3] is HLA-A*03:01. Described as above.
In another assay the target is HLA-A*24:02. As to the kind of experiment: IEDB peptide-MHC binding, purified MHC/competitive/fluorescence; ≥ and ≤ were set here for values at or beyond the usual limits of such assays.
A further assay has as its target HLA-B*15:01. As to the kind of experiment: IEDB peptide-MHC binding, purified MHC/competitive/radioactivity; filed as Kd, often an IC50 or EC50 that approximates it; ≥ and ≤ were set here for values at or beyond the usual limits of such assays.
For the next assay, the target named is HLA-A*68:01. The description is as above. The following applies: source organism: Vaccinia virus WR.
For another assay, the target named is HLA-A*11:01. The assay is described as above. The note with it: source organism: Vaccinia virus WR.
Assay [4] has as its target HLA-A*03:01. The description is as above. The following applies: source organism: Vaccinia virus WR.
Another assay addresses HLA-A*33:01. The assay is described as above. The following applies: source organism: Vaccinia virus WR.
Assay [5] deals with HLA-A*02:01. As to the kind of experiment: IEDB peptide-MHC binding, purified MHC/competitive/fluorescence; ≥ and ≤ were set here for values at or beyond the usual limits of such assays.
The target in assay [6] is HLA-A*02:01. Kind of assay: IEDB peptide-MHC binding, purified MHC/competitive/radioactivity; filed as Kd, often an IC50 or EC50 that approximates it; ≥ and ≤ were set here for values at or beyond the usual limits of such assays.
The target in assay [7] is HLA-A*02:01. As to the kind of experiment: IEDB peptide-MHC binding, purified MHC/competitive/fluorescence; filed as Kd, often an IC50 or EC50 that approximates it; ≥ and ≤ were set here for values at or beyond the usual limits of such assays.
The target in a further assay is HLA-B*08:01. Kind of assay: IEDB peptide-MHC binding, purified MHC/competitive/radioactivity; filed as Kd, often an IC50 or EC50 that approximates it; ≥ and ≤ were set here for values at or beyond the usual limits of such assays. The note with it: source organism: Vaccinia virus WR.
The mark [8] stands for this setting: source organism: Dengue virus 2 Jamaica/1409/1983.
[9] abbreviates: source organism: Vaccinia virus WR.
The mark [10] stands for this setting: source organism: Mammarenavirus brazilense.
The mark [11] stands for this setting: source organism: Rickettsia prowazekii.
The mark [12] stands for this setting: source organism: Dengue virus 3 Martinique/1243/1999.
Where [13] appears, read: source organism: Dengue virus 4 Philippines/H241/1956.
The mark [14] stands for this setting: source organism: Vaccinia virus.
[15] abbreviates: source organism: Zaire ebolavirus.
The mark [16] stands for this setting: source organism: Brucella melitensis.
The mark [17] stands for this setting: source organism: Mammarenavirus whitewaterense.

As for KSKAINVLR, the Kd with HLA-A*31:01 [1] (setting [8]) stood at 1.1 nM; with HLA-A*30:01 (setting [8]), 103 nM.
In the case of KSKNINIEV, the Kd with HLA-A*30:01 (setting [9]) came out at 0.324 nM.
As for KTLHSSVQSY, the Kd in the assay with HLA-A*01:01 (setting [10]) is 4920 nM; with HLA-A*32:01 (setting [10]), 527 nM; in the assay with HLA-A*29:02 (setting [10]), 6180 nM; with HLA-A*30:02 (setting [10]), 73.5 nM; with HLA-A*26:01 (setting [10]), at least 36800 nM; with HLA-A*30:01 (setting [10]), 573 nM.
As to KWLKIITPK, the equilibrium dissociation constant (Kd) was 217 nM in the assay with HLA-A*31:01 [2] (setting [11]) and at least 20000 nM in the assay with HLA-A*03:01 [3] (setting [11]).
The sequence LDRPHTPQF had an IC50 with HLA-A*24:02 (source organism: Sudan ebolavirus) of 23800 nM.
Regarding LMALKLITQF, the Kd with HLA-B*15:01 (setting [12]) is 149 nM.
As for LMNKENAEM, the Kd in the assay with HLA-B*15:01 (setting [9]) came to 7.7 nM.
Consider LRVLSIPPTA, for which the Kd with HLA-A*30:01 (setting [13]) came out at 3500 nM.
As for LVYKKMQSY, the Kd in the assay with HLA-B*15:01 (setting [9]) amounted to 45.7 nM.
Turning to MQKFTILEY, the Kd is 10.1 nM with HLA-B*15:01 (setting [9]); 10800 nM with HLA-A*68:01; 39.8 nM with HLA-A*11:01; 174 nM in the assay with HLA-A*31:01 [1] (setting [9]); 470 nM in the assay with HLA-A*03:01 [4]; at least 54500 nM with HLA-A*33:01.
Take MVCPNINAF: the Kd in the assay with HLA-B*15:01 (setting [9]) is 22 nM.
As for MVLPGAANK, the Kd with HLA-A*30:01 (setting [9]) was 58.9 nM.
Take MVRLTTQGL: the Kd in the assay with HLA-A*30:01 (source organism: Vaccinia virus Copenhagen) amounted to 8.32 nM.
Take NLNVTTQSI: the values for the IC50 with HLA-A*02:01 [5] (setting [14]) and in the assay with HLA-A*24:02 (setting [14]) were 44700 nM and 11100 nM, respectively.
Take PLGLVDLFV: in the assay with HLA-A*02:01 [6] (source organism: Lassa virus Josiah), the Kd was found to be 4170 nM.
RFTPQFLLQ registered an IC50 with HLA-A*24:02 (setting [15]) of 4080 nM.
Consider RIRQQLPLY, for which the Kd with HLA-A*68:01 is 1190 nM; with HLA-A*11:01, 553 nM; with HLA-A*31:01 [1] (setting [9]), 773 nM; in the assay with HLA-A*03:01 [4], 21.5 nM; with HLA-A*33:01 it was at least 77700 nM; with HLA-A*30:01 (setting [9]) it was 12.8 nM.
RLRGEARKTF: the Kd with HLA-B*15:01 (setting [8]) was 49.3 nM.
In the case of RVRIPDVAR, the values for the Kd with HLA-A*31:01 [2] (setting [16]) and with HLA-A*03:01 [3] (setting [16]) were 23.4 nM and 293 nM, respectively.
Take RVRISLIYL: the equilibrium dissociation constant (Kd) with HLA-A*30:01 (setting [9]) stood at 0.0915 nM.
SLKDVLVSV registered a Kd in the assay with HLA-A*02:01 [7] (source organism: Horsepox virus) of 3.6 nM.
Consider TFKKSGAIK, for which, in the assay with HLA-A*30:01 (setting [12]), the Kd is 1200 nM.
In the case of TGILQLPRD, the IC50 in the assay with HLA-A*02:01 [5] (setting [15]) was at least 584000 nM; with HLA-A*24:02 (setting [15]) it was at least 506000 nM.
For TTKNGQPRK, the Kd with HLA-A*30:01 (setting [9]) is 0.233 nM.
Take VLENFTILLV: in the assay with HLA-A*02:01 [6] (source organism: Homo sapiens), the Kd is 527 nM.
VLSPTIGHV displayed a Kd in the assay with HLA-A*02:01 [7] (setting [9]) of 4 nM.
As to VMVMVGATM, the Kd with HLA-B*15:01 (setting [8]) came out at 2.77 nM.
As to VVKATYLLK, in the assay with HLA-A*30:01 (setting [9]), the Kd worked out at 0.32 nM.
Take YIKFIFLQM: the Kd in the assay with HLA-B*15:01 (setting [9]) worked out at 1350 nM; in the assay with HLA-B*08:01, 8.58 nM.
The corresponding values for YIRFRKNHI are 1010 nM and 1.44 nM.
As for YLKEEQDQQY, the Kd in the assay with HLA-A*01:01 (setting [13]) was 15600 nM; with HLA-B*15:01 (setting [13]) it was 7.59 nM.
In the assay with HLA-A*02:01 [7] (source organism: Bacillus cereus G9241), YLKKKNHPL registered a Kd of 6 nM.
Turning to YVNHTGFNV, the Kd in the assay with HLA-A*01:01 (setting [17]) is 5880 nM; with HLA-A*32:01 (setting [17]), at least 77800 nM; with HLA-A*29:02 (setting [17]) it was 2470 nM; in the assay with HLA-A*30:02 (setting [17]), at least 76900 nM; in the assay with HLA-A*26:01 (setting [17]), at least 53600 nM; with HLA-A*30:01 (setting [17]), 1240 nM.
